Experimental data from paper PMC3469519 (Molecular Biology of the Cell, 2012).
Like-named read-outs stand apart in the source and are kept apart here.

Legend:
Assay in all cases: pull-down
6His-Bnr1-758 (Bnr1-N) = target: T1, 6His-Bnr1-758 (Bnr1-N) (S. cerevisiae, UniProt P40450 1-758)
T1 sequence (looked up): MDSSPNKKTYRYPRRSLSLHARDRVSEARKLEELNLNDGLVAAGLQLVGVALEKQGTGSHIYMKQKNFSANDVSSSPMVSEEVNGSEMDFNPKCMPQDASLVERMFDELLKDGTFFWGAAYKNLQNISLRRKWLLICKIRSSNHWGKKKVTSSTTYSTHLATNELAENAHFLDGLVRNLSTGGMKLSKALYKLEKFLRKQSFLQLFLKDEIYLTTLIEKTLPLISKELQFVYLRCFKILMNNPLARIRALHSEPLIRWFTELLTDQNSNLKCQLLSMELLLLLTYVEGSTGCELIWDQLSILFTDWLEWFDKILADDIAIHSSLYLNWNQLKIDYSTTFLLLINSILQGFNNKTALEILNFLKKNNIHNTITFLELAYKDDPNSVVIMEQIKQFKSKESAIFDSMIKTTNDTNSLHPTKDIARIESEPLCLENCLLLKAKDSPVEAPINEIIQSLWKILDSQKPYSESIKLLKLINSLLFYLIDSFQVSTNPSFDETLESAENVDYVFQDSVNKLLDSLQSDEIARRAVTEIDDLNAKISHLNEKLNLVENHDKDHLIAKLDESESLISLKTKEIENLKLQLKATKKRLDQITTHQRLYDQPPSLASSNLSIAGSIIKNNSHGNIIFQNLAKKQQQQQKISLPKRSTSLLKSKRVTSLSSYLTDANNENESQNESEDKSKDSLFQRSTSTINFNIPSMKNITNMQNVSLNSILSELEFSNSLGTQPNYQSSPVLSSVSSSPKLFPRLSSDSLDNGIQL

full-length 6His-Bnr1 [1] = target: T2, full-length 6His-Bnr1 (S. cerevisiae, UniProt P40450 1-1375)
full-length 6His-Bnr1 [2] = target: T2, full-length 6His-Bnr1; remark: listed apart in the source

B1: pCAL-n-FLAG-Gin4-C (amino acids 540–1142) (domain or fragment, S. cerevisiae, UniProt Q12263 540-1142, looked up)
chain: SSNFATLIDEIFEYEKYEQIRKEKEELERKVREAKAREELERRRRKQEEKERARKLLEKEDLKRKQEELKKQIEIDISDLEQELSKHKEEKLDGNIRSISAPMENEEKNINHLEVDIDNILRRRNFSLQTRPVSRLDPGIMFSSPTEEVSPVEPKRTENERLTTEKKILETIRRSKFLGSSFNIDKELKLSKMEYPSIIAPQRLSEERVVSDSNDGYESLILPKDGNGVSQLKDSTATTAPVSDGRLRKISEIRVPQFTRKSRHFSESNKRLSVLSMYSTKESFTNLVDILKNGNLDVNNQQSQRIPTPRSADDSEFLFETVNEEAEYTGNSSNDERLYDVGDSTIKDKSALKLNFADRFNGSNEAKQTDNLHLPILPPLNGDNELRKQNSQEGDQAHPKIKSMIPESGSSSHTEKEEENEEKEEKKPEQHKQEEDQEKREKVVDDMEPPLNKSVQKIREKNAGSQAKDHSKDHLKEHKQDKNTAIGNGSFFRKFSKSSDKTMELYAKISAKQLFNGLEKLLRGWTQYGLKNIKSHPNNLTLTGKLSSDNIFSLRSTLFEVNIYPRGKMSVVQFKKVSGSFKAVKKLVNEVENVLNKEGVLQK
binding result (6His-Bnr1-758 (Bnr1-N)): binds | binding result (full-length 6His-Bnr1 [1]): binds

B2: full-length GST-Gin4 (enzyme, S. cerevisiae, UniProt Q12263 1-1142, looked up)
chain: MAINGNSIPAIKDNTIGPWKLGETLGLGSTGKVQLARNGSTGQEAAVKVISKAVFNTGNVSGTSIVGSTTPDALPYGIEREIIIMKLLNHPNVLRLYDVWETNTDLYLVLEYAEKGELFNLLVERGPLPEHEAIRFFRQIIIGVSYCHALGIVHRDLKPENLLLDHKYNIKIADFGMAALETEGKLLETSCGSPHYAAPEIVSGIPYQGFASDVWSCGVILFALLTGRLPFDEEDGNIRTLLLKVQKGEFEMPSDDEISREAQDLIRKILTVDPERRIKTRDILKHPLLQKYPSIRDSKSIRGLPREDTYLTPLSESNSSIDATILQNLVILWHGRDPEGIKEKLREPGANAEKTLYALLYRFKCDTQKELIKQQQVKKRQSISSVSVSPSKKVSTTPQRRRNRESLISVTSSRKKPISFNKFTASSASSSNLTTPGSSKRLSKNFSSKKKLSTIVNQSSPTPASRNKRASVINVEKNQKRASIFSTTKKNKRSSRSIKRMSLIPSMKRESVTTKLMSTYAKLAEDDDWEYIEKETKRTSSNFATLIDEIFEYEKYEQIRKEKEELERKVREAKAREELERRRRKQEEKERARKLLEKEDLKRKQEELKKQIEIDISDLEQELSKHKEEKLDGNIRSISAPMENEEKNINHLEVDIDNILRRRNFSLQTRPVSRLDPGIMFSSPTEEVSPVEPKRTENERLTTEKKILETIRRSKFLGSSFNIDKELKLSKMEYPSIIAPQRLSEERVVSDSNDGYESLILPKDGNGVSQLKDSTATTAPVSDGRLRKISEIRVPQFTRKSRHFSESNKRLSVLSMYSTKESFTNLVDILKNGNLDVNNQQSQRIPTPRSADDSEFLFETVNEEAEYTGNSSNDERLYDVGDSTIKDKSALKLNFADRFNGSNEAKQTDNLHLPILPPLNGDNELRKQNSQEGDQAHPKIKSMIPESGSSSHTEKEEENEEKEEKKPEQHKQEEDQEKREKVVDDMEPPLNKSVQKIREKNAGSQAKDHSKDHLKEHKQDKNTAIGNGSFFRKFSKSSDKTMELYAKISAKQLFNGLEKLLRGWTQYGLKNIKSHPNNLTLTGKLSSDNIFSLRSTLFEVNIYPRGKMSVVQFKKVSGSFKAVKKLVNEVENVLNKEGVLQK
binding result (full-length 6His-Bnr1 [2]): binds
